How the values were obtained:
human Factor IX (human) = human Factor IX (human) (UniProt P00740); assay: cell-based or functional assay
[1] = target: Recombinant human Factor IX (rhFIX, Genetics Institute) (human) (UniProt P00740); assay: titration microcalorimetry; 106 uM FIX injected into 2 uM mAb
Recombinant human Factor IX (rhFIX, Genetics Institute) (human), sequence (P00740 47-461 limits assumed): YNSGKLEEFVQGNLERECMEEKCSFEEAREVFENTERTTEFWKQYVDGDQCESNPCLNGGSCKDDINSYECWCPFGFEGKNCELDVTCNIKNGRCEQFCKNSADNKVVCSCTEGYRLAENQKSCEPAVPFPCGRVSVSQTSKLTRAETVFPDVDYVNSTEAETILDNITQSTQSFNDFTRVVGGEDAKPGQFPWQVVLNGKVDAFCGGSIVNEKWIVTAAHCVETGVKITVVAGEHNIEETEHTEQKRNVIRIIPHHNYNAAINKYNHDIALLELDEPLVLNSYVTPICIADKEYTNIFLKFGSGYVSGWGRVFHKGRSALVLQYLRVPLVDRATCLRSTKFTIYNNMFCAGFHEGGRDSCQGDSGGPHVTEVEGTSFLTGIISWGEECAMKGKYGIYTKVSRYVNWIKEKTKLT

human Factor IX (human), sequence (P00740 47-461 limits assumed): as above

Row | aPTT at saturating concentrations (human Factor IX (human)) | aPTTmax/aPTTnormal x 100 % (human Factor IX (human)) | molar binding ratio (FIX per mAb) [1] | Binder
1 | 90 s | 350% | – | murine anti-Factor IX monoclonal antibody BC2 (antibody, from a related filing, mouse IgG2a, V domains shown) VH: QIQLVQSGPELKKPGETVKISCKASGYTFTNYGMNWVKQAPGKGLKWMGWINTRNGKSTYVDDFKGRFAFSLESSASTANLQIDNLKDEDTATYFCTREGNMDGYFPFTYWGQGTLVTVSA VL: QIVLSQSPAILSASPGEKVTMTCRASSSVNYMHWYQQKPGSSPKPWIYATSNLASGVPARFSGSGSGTSYSLTISRVEAEDAATYYCQQWSINPRTFGGGTKLEIKR
2 | – | – | 2 FIX per mAb | humanized anti-Factor IX monoclonal antibody SB 249417 (antibody, V domains shown) VH: QVQLVQSGSELKKPGASVKVSCKASGYTFTNYGMNWVRQAPGQGLKWMGWINTRNGKSTYVDDFKGRFVFSLDSSVSTAYLQISSLKADDTAVYYCTREGNMDGYFPFTYWGQGTLVTVSS VL: QIVLTQSPSSLSASVGDRVTITCRASSSVNYMHWYQQKPGKAPKPWIYATSNLASGVPSRFSGSGSGTDYTFTISSLQPEDIATYYCQQWSINPRTFGQGTKVEIKR

Reference: patent publication US20040146511A1
